# Reference: US20140105889A1 (published 2014)
# Substitutions are numbered along the chain they refer to. In names and notes the source's numbering stands.
# T1: human FcγRIIa type H (allotype H131) (human, UniProt P12318 36-217)
# T1 construct: also called FcγRIIaH; FcγRIIa(H)
# T1 sequence: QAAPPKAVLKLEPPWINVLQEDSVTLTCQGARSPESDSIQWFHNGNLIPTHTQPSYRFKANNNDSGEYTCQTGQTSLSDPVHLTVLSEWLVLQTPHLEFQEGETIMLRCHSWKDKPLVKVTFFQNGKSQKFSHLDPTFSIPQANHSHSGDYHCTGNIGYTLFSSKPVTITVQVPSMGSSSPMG
# T2: human FcγRIIb (human, UniProt P31994 43-217, limits assumed)
# T2 construct: also called FcγIIB; hFcgRIIb
# T2 sequence: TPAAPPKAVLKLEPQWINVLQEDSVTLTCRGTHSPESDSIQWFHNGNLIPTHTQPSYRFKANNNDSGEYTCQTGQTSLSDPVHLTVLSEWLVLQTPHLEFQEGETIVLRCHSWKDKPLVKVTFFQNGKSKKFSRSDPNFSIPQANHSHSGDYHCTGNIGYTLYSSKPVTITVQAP
# T3: human FcγRIIb (human, UniProt P31994 43-217)
# T3 construct: also called FcγIIB
# T3 sequence: T2 sequence
# B1: IL6R-BP194/IL6R-L (antibody, human IgG1)
# heavy: QVQLQESGPGLVKPSETLSLTCAVSGHSISHDHAWSWVRQPPGEGLEWIGFISYSGITNYNPSLQGRVTISRDNSKNTLYLQMNSLRAEDTAVYYCARSLARTTAMDYWGEGTLVTVSSASTKGPSVFPLAPSSKSTSGGTAALGCLVKDYFPEPVTVSWNSGALTSGVHTFPAVLQSSGLYSLSSVVTVPSSSLGTQTYICNVNHKPSNTKVDKKVEPKSCDKTHTCPPCPAPDYLGDDSVFLFPPKPKDTLMISRTPEVTCVVVDVSDEDGEVKFNWYVDGVEVHNAKTKPREEQYNSTYRVVSVLTVLHQDWLNGKEYKCKVSNAALPKPIEKTISKAKGQPREPQVYTLPPSRDELTKNQVSLTCLVKGFYPSDIAVEWESNGQPENNYKTTPPVLDSDGSFFLYSKLTVDKSRWQQGNVFSCSVMHEALHNHYTQESLSLSP
# light: DIQMTQSPSSLSASVGDRVTITCRASQDISSYLNWYQQKPGKAPKLLIYYTSRLHSGVPSRFSGSGSGTDFTFTISSLQPEDIATYYCQQGNTLPYTFGQGTKVEIK
# notes: Anti-human IL-6 receptor human IgG1 variant; copies: 2 + 2
# B2: IL6R-BP202/IL6R-L (antibody, human IgG1)
# heavy: B1 heavy with D235E, Y236L, D270H, K332R
# light: B1 light
# notes: as for B1
# B3: IL6R-BP184/IL6R-L (antibody, human IgG1)
# heavy: B1 heavy with Y236L, D239G, D270H, A328K
# light: B1 light
# notes: as for B1
# B4: IL6R-BP189/IL6R-L (antibody, human IgG1)
# heavy: B1 heavy with D235E, Y236L
# light: B1 light
# notes: as for B1
# B5: IL6R-BP201/IL6R-L (antibody, human IgG1)
# heavy: B1 heavy with Y236L, D270H, A328K, K332R
# light: B1 light
# notes: as for B1
# B6: IL6R-BP133/IL6R-L (antibody, human IgG1)
# heavy: B1 heavy with D239G, D270H, G273P, A328K
# light: B1 light
# notes: copies: 2 + 2
# B7: antibody with VH3-IgG1-F821 heavy chain and L(WT)-CK light chain (antibody)
# heavy: QVQLQESGPGLVKPSETLSLTCAVSGHSISHDHAWSWVRQPPGEGLEWIGFISYSGITNYNPSLQGRVTISRDNSKNTLYLQMNSLRAEDTAVYYCARSLARTTAMDYWGEGTLVTVSSASTKGPSVFPLAPSSKSTSGGTAALGCLVKDYFPEPVTVSWNSGALTSGVHTFPAVLQSSGLYSLSSVVTVPSSSLGTQTYICNVNHKPSNTKVDKKVEPKSCDKTHTCPPCPAPELRGGPKVFLFPPKPKDTLYISRTPEVTCVVVDVSHEDPEVKFNWYVDGVEVHNAKTKPREEQYNSTYRVVSVLTVLHQDWLNGKEYKCKVSNKALPAPIEKTISKAKGQPREPQVYTLPPSRDELTKNQVSLTCLVKGFYPSDIAVEWESNGQPENNYKTTPPVLDSDGSFFLYSKLTVDKSRWQQGNVFSCSVMHEALHYHYTQKSLSLSP
# light: not shown
# notes: copies: 2 + 2
# B8: antibody with VH3-IgG1-F890 heavy chain and L(WT)-CK light chain (antibody)
# heavy: B7 heavy with R237L, K241S, Y438V
# light: not shown
# notes: copies: 2 + 2
# B9: antibody with VH3-IgG1-F1009 heavy chain and L(WT)-CK light chain (antibody)
# heavy: B7 heavy with T252V, T309Q, V310P, Q313A, Y438V
# light: not shown
# notes: copies: 2 + 2
# B10: antibody with VH3-IgG1-F939 heavy chain and L(WT)-CK light chain (antibody)
# heavy: B7 heavy with Y438V
# light: not shown
# notes: copies: 2 + 2
# B11: antibody with mPM1H-mIgG1-mF14 heavy chain (antibody)
# heavy: DVQLQESGPVLVKPSQSLSLTCTVTGYSITSDHAWSWIRQFPGNKLEWMGYISYSGITTYNPSLKSRISITRDTSKNQFFLQLNSVTTGDTSTYYCARSLARTTAMDYWGQGTSVTVSSAKTTPPSVYPLAPGSAAQTNSMVTLGCLVKGYFPEPVTVTWNSGSLSSGVHTFPAVLQSDLYTLSSSVTVPSSTWPSETVTCNVAHPASSTKVDKKIVPRDCGCKPCICTVPEVSSVFIFPPKPKDVLYITLEPKVTCVVVDISKDDPEVQFSWFVDDVEVHTAQTQPREEQFNSTFRSVSELPIMHQDWLNGKEFKCRVNSAAFPAPIEKTISKTKGRPKAPQVYTIPPPKEQMAKDKVSLTCMITDFFPEDITVEWQWNGQPAENYKNTQPIMDTDGSYFVYSKLNVQKSNWEAGNTFTCSVLHEGLKNHHTEKSLSHSPGK
# light: not shown
# notes: also called mPM1-mIgG1-mF14; copies: 2 + 2
# B12: antibody with mPM1H-mIgG1-mF38 heavy chain (antibody)
# heavy: B11 heavy with K429H, N430W
# light: not shown
# notes: also called mPM1-mIgG1-mF38; copies: 2 + 2
# B13: antibody with mPM1H-mIgG1-mF40 heavy chain (antibody)
# heavy: B11 heavy with P231K, S235K, K429H, N430W
# light: not shown
# notes: also called mPM1-mIgG1-mF40; copies: 2 + 2
# B14: antibody with mPM1H-mIgG1-mF39 heavy chain (antibody)
# heavy: B11 heavy with P231K, S235K
# light: not shown
# notes: also called mPM1-mIgG1-mF39; copies: 2 + 2
# B15: F1072 (antibody, name in EU numbering)
# heavy: B7 heavy with R237L, K241S, Y438V, S442E
# light: not shown
# notes: copies: 2 + 2
# B16: F1078 (antibody, human IgG1, kappa, name in EU numbering)
# heavy: B7 heavy with R237L, K241S, E382N, E384S
# light: not shown
# notes: copies: 2 + 2
# B17: F1099 (antibody, human IgG1, kappa, name in EU numbering)
# heavy: B7 heavy with R237L, K241S, K328D, L330Y
# light: not shown
# notes: copies: 2 + 2
# B18: F1071 (antibody, human IgG1, kappa, name in EU numbering)
# heavy: B7 heavy with R237L, K241S, Y438V, Q440S
# light: not shown
# notes: copies: 2 + 2
# B19: F1076 (antibody, human IgG1, kappa, name in EU numbering)
# heavy: B7 heavy with R237L, K241D, K328D, L330Y, Y438V
# light: not shown
# notes: copies: 2 + 2
# B20: F1060 (antibody, human IgG1, kappa, name in EU numbering)
# heavy: B7 heavy with R237L, K241S, Q388S, Y438V
# light: not shown
# notes: copies: 2 + 2
# B21: F1079 (antibody, human IgG1, kappa, name in EU numbering)
# heavy: B7 heavy with R237L, K241S, E384N, N386S
# light: not shown
# notes: copies: 2 + 2
# B22: F1213 (antibody, human IgG1, kappa, name in EU numbering)
# heavy: B7 heavy with R237L, K241S, L253N, Y438V
# light: not shown
# notes: copies: 2 + 2
# B23: antibody containing VH3-IgG2-F890 and L(WT)-CK (antibody)
# heavy: QVQLQESGPGLVKPSETLSLTCAVSGHSISHDHAWSWVRQPPGEGLEWIGFISYSGITNYNPSLQGRVTISRDNSKNTLYLQMNSLRAEDTAVYYCARSLARTTAMDYWGEGTLVTVSSASTKGPSVFPLAPCSRSTSESTAALGCLVKDYFPEPVTVSWNSGALTSGVHTFPAVLQSSGLYSLSSVVTVPSSNFGTQTYTCNVDHKPSNTKVDKTVERKCCVECPPCPAPPVAGPSVFLFPPKPKDTLYISRTPEVTCVVVDVSHEDPEVQFNWYVDGVEVHNAKTKPREEQFNSTFRVVSVLTVVHQDWLNGKEYKCKVSNKGLPAPIEKTISKTKGQPREPQVYTLPPSREEMTKNQVSLTCLVKGFYPSDIAVEWESNGQPENNYKTTPPMLDSDGSFFLYSKLTVDKSRWQQGNVFSCSVMHEALHYHVTQKSLSLSP
# light: not shown
# notes: VH3-IgG2 with M252Y/N434Y/Y436V (EU numbering)
# B24: antibody containing VH3-IgG2 and L(WT)-CK (antibody)
# heavy: B23 heavy with Y250M, Y432N, V434Y
# light: not shown
# B25: antibody containing VH3-IgG2-F939 and L(WT)-CK (antibody)
# heavy: B23 heavy with A234R, S237K
# light: not shown
# notes: VH3-IgG2 with A235R/S239K/M252Y/N434Y/Y436V (EU numbering)
# B26: antibody containing VH3-IgG4-F890 and L(WT)-CK (antibody)
# heavy: QVQLQESGPGLVKPSETLSLTCAVSGHSISHDHAWSWVRQPPGEGLEWIGFISYSGITNYNPSLQGRVTISRDNSKNTLYLQMNSLRAEDTAVYYCARSLARTTAMDYWGEGTLVTVSSASTKGPSVFPLAPCSRSTSESTAALGCLVKDYFPEPVTVSWNSGALTSGVHTFPAVLQSSGLYSLSSVVTVPSSSLGTKTYTCNVDHKPSNTKVDKRVESKYGPPCPPCPAPEFLGGPSVFLFPPKPKDTLYISRTPEVTCVVVDVSQEDPEVQFNWYVDGVEVHNAKTKPREEQFNSTYRVVSVLTVLHQDWLNGKEYKCKVSNKGLPSSIEKTISKAKGQPREPQVYTLPPSQEEMTKNQVSLTCLVKGFYPSDIAVEWESNGQPENNYKTTPPVLDSDGSFFLYSRLTVDKSRWQEGNVFSCSVMHEALHYHVTQKSLSLSL
# light: not shown
# notes: VH3-IgG4 with M252Y/N434Y/Y436V (EU numbering)
# B27: antibody containing VH3-IgG4-F939 and L(WT)-CK (antibody)
# heavy: B26 heavy with L234R, S238K
# light: not shown
# notes: VH3-IgG4 with L235R/S239K/M252Y/N434Y/Y436V (EU numbering)
# Target: T1, human FcγRIIa type H (allotype H131)
# Assay: SPR (Biacore), antibody captured on the chip, FcγR as analyte
row,Kd,Binder
1,6500 nM,B1
2,9200 nM,B2
3,3000 nM,B3
4,2100 nM,B4
5,6900 nM,B5

# Target: T4, human FcγRIIIa type V (allotype V158) (human, UniProt P08637 17-208, limits assumed)
# T4 construct: the assay used allotype V158; also called FcγRIIIaV; FcγRIIIa(V)
# T4 sequence (P08637 other isoform, or with tags, fused parts or gaps limits assumed): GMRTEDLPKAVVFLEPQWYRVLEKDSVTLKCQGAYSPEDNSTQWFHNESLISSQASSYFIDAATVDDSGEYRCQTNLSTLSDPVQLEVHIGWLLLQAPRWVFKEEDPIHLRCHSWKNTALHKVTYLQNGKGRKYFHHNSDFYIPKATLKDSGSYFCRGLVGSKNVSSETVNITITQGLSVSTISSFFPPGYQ
# Assay: as above
row,Kd,Binder
1,27000 nM,B1
2,66000 nM,B3
3,49000 nM,B4

# Target: T2, human FcγRIIb
# Assay: SPR KD for FcγRIIb of parent IL6R-B3/IL6R-L divided by that of this variant
# Source text: (§1) Furthermore, KD(IIaR)/KD(IIb) and KD(IIaH)/KD(IIb) in the table respectively represent the value obtained by dividing the KD value of each variant for FcγRIIaR by the KD value of each variant for FcγRIIb, and the value obtained by dividing the KD value of each variant for FcγRIIaH by the KD value of each variant for FcγRIIb.
row,KD(IIb) of the parent polypeptide/KD(IIb) of the altered polypeptide,Binder
1,5.5,B6

# Target: T5, mouse FcγRIV (mouse)
# T5 construct: Bought soluble receptor; also called mFcgRIV; mFcgR IV
# T5 sequence (A0A0B4J1G0 21-203): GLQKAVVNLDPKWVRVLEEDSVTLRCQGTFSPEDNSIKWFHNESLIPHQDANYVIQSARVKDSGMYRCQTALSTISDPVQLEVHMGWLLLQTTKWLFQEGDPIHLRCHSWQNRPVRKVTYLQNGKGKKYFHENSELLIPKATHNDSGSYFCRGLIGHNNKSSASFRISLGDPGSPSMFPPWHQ
# Assay: SPR (Biacore), antibody captured on Protein L, mouse FcγR as analyte, pH 7.4, 25 C
# Procedure: (§2) Binding activity between the antibodies and mouse FcγRI, FcγRII, FcγRIII and FcγRIV (R&D Systems, Sin θ Biological) (hereinafter referred to as mouse FcγRs) was evaluated using the Biacore T100 or T200 (GE Healthcare). The antibodies being tested were captured by Protein L (ACTIGEN) that was immobilized in suitable amounts on the CM4 Sensor Chip (GE Healthcare) by amine coupling. Next, the diluted mouse FcγRs and a running buffer used as a blank were injected to allow interaction with the antibody captured on the sensor chip. A buffer consisting of 20 mmol/L ACES, 150 mmol/L NaCl and 0.05% (w/v) Tween 20 (pH 7.4) was used for the running buffer, and this buffer was also used to dilute the mouse FcγRs. 10 mmol/L glycine-HCl (pH 1.5) was used to regenerate the sensor chip. All measurements were carried out at 25° C.
row,BINDING AMOUNT (RU),Binder
1,-3.8 RU,B7
2,230 RU,B8
3,7.2 RU,B9
4,-7.3 RU,B10

# Target: T5, mouse FcγRIV
# Assay: as above
# Remark: another data set of the same source
# Procedure: as §2
row,BINDING AMOUNT (RU),Binder
1,-8 RU,B11
2,-4.1 RU,B12
3,-8.9 RU,B13
4,-3.8 RU,B14

# Target: T6, human FcRn (human)
# T6 construct: also called hFcRn; soluble human FcRn complexed with β2-microglobulin
# Assay: SPR (Biacore), pH 7.0, 25 C, antibody captured by Protein L, human FcRn as analyte
# Procedure: (§3) A kinetic analysis of binding between human FcRn and the aforementioned antibodies was carried out using the Biacore T100 or T200 (GE Healthcare). The antibodies being tested were captured on the CM4 Sensor Chip (GE Healthcare) on which a suitable amount of Protein L (ACTIGEN) was suitably immobilized by amine coupling. Next, diluted human FcRn and a running buffer used as a blank were injected to allow the human FcRn to interact with the antibody captured on the sensor chip. A buffer consisting of 50 mmol/L sodium phosphate, 150 mmol/L NaCl and 0.05% (w/v) Tween 20 (pH 7.0 or pH 7.4) was used for the running buffer, and each buffer was also used to dilute the human FcRn. 10 mmol/L glycine-HCl (pH 1.5) was used to regenerate the sensor chip. All measurements of binding were carried out at 25° C. The KD(M) of each antibody to human FcRn was calculated based on kinetics parameters, i.e., the association rate constant ka (1/Ms) and the dissociation rate constant kd (1/s) calculated from a sensorgram obtained by the measurement. The Biacore T100 or T200 Evaluation Software (GE Healthcare) was used to calculate each parameter.
row,Kd,Binder
1,135 nM,B15
2,470 nM,B16
3,257 nM,B17
4,124 nM,B18
5,127 nM,B19
6,143 nM,B20
7,344 nM,B21

# Target: T6, human FcRn
# Assay: as above
# Remark: another data set of the same source
# Procedure: as §3
row,Kd,Binder
1,633 nM,B22

# Target: T3, human FcγRIIb
# Assay: SPR (Biacore); KD of parent IL6R-B3/IL6R-L for FcγRIIb divided by KD of the variant for FcγRIIb
# Source text: as §1
row,KD(IIb) of the parent polypeptide/KD(IIb) of the altered polypeptide,Binder
1,59.4,B1
2,48.4,B2
3,24.5,B3
4,41.8,B4
5,77.1,B5

# Target: T7, human FcγRIIIa(F) (human, UniProt P08637 17-208, limits assumed)
# T7 construct: also called FcgRIIIaF; hFcgRIIIa(F)
# T7 sequence (P08637 other isoform, or with tags, fused parts or gaps limits assumed): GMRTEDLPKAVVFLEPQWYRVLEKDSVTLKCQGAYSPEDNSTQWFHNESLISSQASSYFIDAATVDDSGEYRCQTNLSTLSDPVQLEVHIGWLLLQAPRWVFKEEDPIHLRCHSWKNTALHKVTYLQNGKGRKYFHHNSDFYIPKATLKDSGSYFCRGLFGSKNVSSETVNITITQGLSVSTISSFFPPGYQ
# Assay: SPR (Biacore), antibody captured by Protein L, FcγR as analyte, pH 7.4, 25°C; amount normalised to captured antibody
# Procedure: Binding activity between the antibodies and human FcγRIa, FcγRIIa(H), FcγRIIa(R), FcγRIIb and FcγRIIIa(F) (hereinafter referred to as human FcγRs) was evaluated using the Biacore T100 or T200 (GE Healthcare). The antibodies being tested were captured by Protein L (ACTIGEN) that was immobilized in suitable amounts on the CM4 Sensor Chip (GE Healthcare) by amine coupling. Next, the diluted human FcγRs and a running buffer used as a blank were injected to allow interaction with the antibodies captured on the sensor chip. A buffer consisting of 20 mmol/L ACES, 150 mmol/L NaCl and 0.05% (w/v) Tween 20 (pH 7.4) was used for the running buffer, and this buffer was also used to dilute the human FcγRs. 10 mmol/L glycine-HCl (pH 1.5) was used to regenerate the sensor chip. All measurements were carried out at 25° C.
row,BINDING AMOUNT (RU),Binder
1,9.3 RU,B23
2,16.3 RU,B24
3,0.6 RU,B25
4,3.4 RU,B26
5,-1.7 RU,B27
